The record followed here is US20190315873A1 (AGOMAB THERAPEUTICS, published 2019).

Assay [1] has as its target mouse MET on MLP29 mouse liver precursor cells (mouse) (UniProt P16056). The assay is described as follows: cell-based or functional assay.
Assay [2] has as its target T1, human MET ECD (human, UniProt P08581 25-932).
T1 construct: range 1-932; recombinant ECD made by standard protein engineering; also called hMET; human MET extracellular domain
As to the kind of experiment: ELISA, mouse-format mAb on MET ECD. The method, then: (§1) In order to directly determine whether—and to what extent—the prior art agonistic anti-MET antibodies cross-reacted with mouse MET, and to compare them to our human/mouse equivalent anti-MET antibodies, we performed an ELISA assay. Since all prior art antibodies were obtained or engineered with a mouse IgG/A format, we employed the mouse IgG/A version of 71G3, 71D6 and 71G2. Human or mouse MET ECD was immobilized in solid phase (100 ng/well in a 96-well plate) and exposed to increasing concentrations of antibodies (0-40 nM) in solution. […] Among the antibodies tested, only 71G3, 71D6 and 71G2 bound to both human and mouse MET, and they did so with indistinguishable affinities and capacities.
On the technique in general: In an ELISA, binding on a coated surface is turned into a signal by an enzyme label.

The target in assay [3] is T2, mouse MET ECD (mouse, UniProt P16056 25-931).
T2 construct: range 1-931; recombinant ECD; also called mMET; mouse MET extracellular domain
The assay is described as follows: ELISA, mouse-format mAb on MET ECD. The method, then:
as §1

In assay [4] the target is human MET on A549 human lung carcinoma cells (human) (UniProt P08581). The assay is described as follows: cell-based or functional assay.
Assay [5] addresses human MET ECD mutant A (mutations 1, 2, 3) (human) (UniProt P08581). As to the kind of experiment: ELISA on mutant human MET ECD.
For assay [6], the target named is human MET ECD mutant D (mutations 1, 2) (human) (UniProt P08581). As to the kind of experiment: ELISA on mutant human MET ECD.
Assay [7] addresses human MET ECD mutant E (mutations 2, 3, 4) (human) (UniProt P08581). The assay is described as follows: ELISA on mutant human MET ECD.
For assay [8], the target named is human MET ECD mutant H (mutations 2, 4) (human) (UniProt P08581). The assay is described as follows: ELISA on mutant human MET ECD.
For assay [9], the target named is rat MET ECD (rat) (UniProt P97523). As to the kind of experiment: ELISA: MET ECD immobilized (100 ng/well), mAb in human IgG1/lambda format in solution (0-40 nM), HRP anti-human Fc.
Assay [10] concerns the target T1, human MET ECD. The description is as above. The text has this: (§2) To this end, we investigated whether our human/mouse equivalent anti-MET antibodies cross-reacted with MET from other species, including rat (Rattus norvegicus) and cynomolgus monkey (Macaca fascicularis). […] Human and mouse MET ECD were used as controls. A restricted panel of antibodies representative of both SEMA binders (71D6, 71C3, 71D4, 71A3, 71G2) and PSI binders (76H10, 71G3) was selected. The 5D5 prior art antibody was used as control. MET ECD proteins were immobilized in solid phase (100 ng/well in a 96-well plate) and exposed to increasing concentrations (0-40 nM) of antibodies (with human constant regions) in solution. […] We conclude that the 71D6, 71C3, 71D4, 71A3, 71G2, 76H10 and 71G3 antibodies bind with similar affinity and capacity to human MET, mouse MET, rat MET and simian MET, at least as determined by ELISA.

Assay [11] has as its target T2, mouse MET ECD. The description is as above.
Text: as §2

The target of assay [12] is T3, monkey MET ECD (cynomolgus monkey, UniProt A0A2K5UM36 25-932).
T3 construct: also called simian MET; cynomolgus monkey MET
Described as above.
Text: as §2

T3 sequence (A0A2K5UM36 entry or part of it limits assumed): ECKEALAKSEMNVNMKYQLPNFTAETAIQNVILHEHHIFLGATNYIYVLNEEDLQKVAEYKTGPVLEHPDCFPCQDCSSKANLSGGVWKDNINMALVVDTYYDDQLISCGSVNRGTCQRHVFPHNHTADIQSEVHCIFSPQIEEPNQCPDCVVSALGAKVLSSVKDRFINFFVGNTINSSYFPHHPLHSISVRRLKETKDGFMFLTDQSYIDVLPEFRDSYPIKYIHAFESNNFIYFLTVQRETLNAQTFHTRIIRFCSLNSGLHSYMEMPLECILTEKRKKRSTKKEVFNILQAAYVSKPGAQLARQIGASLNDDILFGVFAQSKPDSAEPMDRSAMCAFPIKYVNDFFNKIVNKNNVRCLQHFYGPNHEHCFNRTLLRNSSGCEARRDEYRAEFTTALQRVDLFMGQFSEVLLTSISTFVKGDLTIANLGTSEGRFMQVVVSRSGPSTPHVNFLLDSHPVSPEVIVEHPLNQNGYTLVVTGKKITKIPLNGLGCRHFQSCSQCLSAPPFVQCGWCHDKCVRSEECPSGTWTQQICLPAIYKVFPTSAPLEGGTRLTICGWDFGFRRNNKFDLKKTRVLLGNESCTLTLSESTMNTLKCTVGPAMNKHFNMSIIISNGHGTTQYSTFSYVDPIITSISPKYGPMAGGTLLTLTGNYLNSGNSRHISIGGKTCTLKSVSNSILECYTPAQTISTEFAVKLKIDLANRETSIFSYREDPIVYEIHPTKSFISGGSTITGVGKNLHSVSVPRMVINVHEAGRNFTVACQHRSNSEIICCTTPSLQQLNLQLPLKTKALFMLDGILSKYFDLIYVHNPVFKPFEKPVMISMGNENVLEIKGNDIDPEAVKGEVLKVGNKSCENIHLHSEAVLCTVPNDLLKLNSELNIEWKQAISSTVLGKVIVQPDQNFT
Sequence of rat MET ECD (rat) (P97523 25-931 limits assumed, form in doubt): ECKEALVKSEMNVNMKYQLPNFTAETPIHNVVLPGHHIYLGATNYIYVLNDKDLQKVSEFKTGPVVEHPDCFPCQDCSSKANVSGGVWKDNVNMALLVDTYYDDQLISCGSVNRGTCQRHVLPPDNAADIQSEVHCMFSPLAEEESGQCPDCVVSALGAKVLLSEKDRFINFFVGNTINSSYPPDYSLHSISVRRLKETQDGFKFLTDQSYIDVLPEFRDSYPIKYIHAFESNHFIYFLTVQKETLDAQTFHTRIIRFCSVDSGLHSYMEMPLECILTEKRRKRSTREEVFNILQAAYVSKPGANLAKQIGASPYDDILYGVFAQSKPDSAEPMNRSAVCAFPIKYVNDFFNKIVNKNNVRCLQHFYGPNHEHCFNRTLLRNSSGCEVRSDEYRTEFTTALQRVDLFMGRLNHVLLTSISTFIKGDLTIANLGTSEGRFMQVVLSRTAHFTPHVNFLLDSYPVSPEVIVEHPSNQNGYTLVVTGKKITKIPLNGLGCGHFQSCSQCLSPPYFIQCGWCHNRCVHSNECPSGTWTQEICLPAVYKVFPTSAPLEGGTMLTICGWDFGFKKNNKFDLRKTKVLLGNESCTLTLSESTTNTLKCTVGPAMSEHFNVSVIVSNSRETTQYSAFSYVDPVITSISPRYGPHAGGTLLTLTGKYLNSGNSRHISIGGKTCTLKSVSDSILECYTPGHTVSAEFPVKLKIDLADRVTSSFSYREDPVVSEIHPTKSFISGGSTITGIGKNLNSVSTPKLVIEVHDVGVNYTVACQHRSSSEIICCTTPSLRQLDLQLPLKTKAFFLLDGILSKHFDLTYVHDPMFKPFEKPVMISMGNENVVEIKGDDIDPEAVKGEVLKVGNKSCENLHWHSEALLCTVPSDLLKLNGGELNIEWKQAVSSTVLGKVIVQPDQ

Consider “recombinant mouse HGF (from UniProt Q08048 33-728) (ligand)”, for which, in assay [1], the phospho-MET ELISA EC50 worked out at 0.23 nM and the phospho-MET ELISA EMAX (% HGF activity) was determined as 100.

Turning to “5D5 anti-human MET antibody, mouse IgG1/lambda format”, the figures for the EC50 in [2] and in assay [3] were 0.197 nM and greater than 40 nM, respectively. For the same molecule, the EMAX in assay [2] stood at 3.16 OD450.

In assay [4], “recombinant human HGF (from UniProt P14210 32-728) (ligand)” displayed a phospho-MET ELISA EC50 of 0.19 nM and a phospho-MET ELISA EMAX (% HGF activity) of 100.

B1: 71D6 llama-human chimeric mAb (human IgG1/lambda) (antibody)
heavy: ELQLVESGGGLVQPGGSLRLSCAASGFTFSSYGMSWVRQAPGKGLEWVSAINSYGGSTSYADSVKGRFTISRDNAKNTLYLQMNSLKPEDTAVYYCAKEVRADLSRYNDYESYDYWGQGTQVTVSSASTKGPSVFPLAPSSKSTSGGTAALGCLVKDYFPEPVTVSWNSGALTSGVHTFPAVLQSSGLYSLSSVVTVPSSSLGTQTYICNVNHKPSNTKVDKKVEPKSCDKTHTCPPCPAPELLGGPSVFLFPPKPKDTLMISRTPEVTCVVVDVSHEDPEVKFNWYVDGVEVHNAKTKPREEQYNSTYRVVSVLTVLHQDWLNGKEYKCKVSNKALPAPIEKTISKAKGQPREPQVYTLPPSRDELTKNQVSLTCLVKGFYPSDIAVEWESNGQPENNYKTTPPVLDSDGSFFLYSKLTVDKSRWQQGNVFSCSVMHEALHNHYTSEVFVPQSRKVI
light: QPVLNQPSALSVTLGQTAKITCQGGSLGARYAHWYQQKPGQAPVLVIYDDDSRPSGIPERFSGSSSGGTATLTISGAQAEDEGDYYCQSADSSGSVFGGGTHLTVLQPKAAPSVTLFPPSSEELQANKATLVCLISDFYPGAVTVAWKADSSPVKAGVETTTPSKQSNNKYAASSYLSLTPEQWKSHRSYSCQVTHEGSTVEKTVAPTECS
For the molecule B1, the % binding (EMAX) vs WT MET ECD in [5] was 103%; in assay [6], 128%; in [7], 43.6%; in [8], 38.6%. Further, the EC50 (read off the curve) is 0.1 nM in assay [9], roughly 0.1 nM in [10], roughly 0.1 nM in [11] and roughly 0.1 nM in assay [12].

B2: DN-30 mouse anti-human MET antibody (antibody, from another filing, V domains shown)
VH: QVQLQQPGTELVKPGASVKLSCKASGYTFTSYWIHWVKQRPGQGLEWIGEINPSSGRTNYNEKFKNKVTVTVDKSSTTAYMQLSNLTSEDSAVYYCASRGYWGQGTTLTVSS
VL: DIVLTQSPASLAVSLGQRATISCKASQSVDYDGGSYMSWFQQRPGQPPKLLISAASNLESGIPARFSGSGSGTDFTLNIHPVEEEDVATYYCQQSYEDPLTFGAGTKLELKR
In [2], B2 returned a concentration for a half-maximal effect (EC50) of 0.067 nM and an EMAX of 3.06 OD450. This molecule also returned an EC50 in assay [3] greater than 40 nM.

B3: 71C3 llama-human chimeric mAb (human IgG1/lambda) (antibody, V domains shown)
VH: QLQLVESGGGLVQPGGSLRLSCAASGFTFSSHAMSWVRQAPGKGLEWVSAINSGGGSTSYADSVKGRFTISRDNAKNTLYLQMNSLKPEDTAVYYCAKELRFDLARYTDYEAWDYWGQGTQVTVSS
VL: SYELTQPSALSVTLGQTAKITCQGGSLGSSYAHWYQQKPGQAPVLVIYDDDSRPSGIPERFSGSSSGGTATLTISGAQAEDEGDYYCQSADSSGNAAVFGGGTHLTVLQ
On to B3, for which the % binding (EMAX) vs WT MET ECD was found to be 99.8% in assay [5], 102% in assay [6], 59.6% in assay [7] and 61.6% in [8]. For the same molecule, the EC50 (read off the curve) is 0.3 nM in assay [9], roughly 0.1 nM in assay [10], roughly 0.1 nM in [11] and roughly 0.1 nM in assay [12].

B4: 71A3 llama-human chimeric mAb (human IgG1/lambda) (antibody, V domains shown)
VH: EVQLVESGGGLVQPGGSLRLSCAASGFSFKDYDITWVRQAPGKGLEWVSTITSRSGSTSYVDSVKGRFTISGDNAKNTLYLQMNSLKPEDTAVYYCAKVYATTWDVGPLGYGMDYWGKGTLVTVSS
VL: SYELTQPSALSVTLGQTAKITCQGGSLGSSYAHWYQQKPGQAPVLVIYDDDSRPSGIPERFSGSSSGGTATLTISGAQAEDEGDYYCQSADSSGNAAVFGGGTHLTVLQ
For the molecule B4, the % binding (EMAX) vs WT MET ECD in assay [5] came out at 117%; in [6], 128%; in assay [7] it was 65.4%; in [8] it was 76.7%. Moreover, the EC50 (read off the curve) in assay [9] was 0.1 nM; in assay [10], roughly 0.09 nM; in [11] it was roughly 0.07 nM; in assay [12], roughly 0.1 nM.

B5: 71D4 llama-human chimeric mAb (human IgG1/lambda) (antibody, V domains shown)
VH: ELQLVESGGGLVQPGGSLRLSCAASGFTFSGYGMSWVRQAPGKGLEWVSDINSGGGSTSYADSVKGRFTISRDNAKNTLYLQMNSLKPEDTAVYYCAKDMRLYLARYNDYEAWDYWGQGTQVTVSS
VL: SSALTQPSALSVTLGQTAKITCQGGSLGSSYAHWYQQKPGQAPVLVIYDDDSRPSGIPERFSGSSSGGTATLTISGAQAEDEGDYYCQSADSSGNAAVFGGGTHLTVLQ
For the molecule B5, the % binding (EMAX) vs WT MET ECD in [5] was found to be 114%; in assay [6], 120%; in assay [7], 57.2%; in assay [8], 58.7%. The EC50 (read off the curve) in assay [9] was 0.2 nM; in [10], roughly 0.2 nM; in [11], roughly 0.2 nM; in assay [12], roughly 0.1 nM.

B6: 71G2 llama-human chimeric mAb (human IgG1/lambda) (antibody)
heavy: EVQLQESGGGLVQPGGSLRLSCAASGFTFSIYDMSWVRQAPGKGLEWVSTINSDGSSTSYVDSVKGRFTISRDNAKNTLYLQMNSLKPEDTAVYYCAKVYGSTWDVGPMGYGMDYWGKGTLVTVSSASTKGPSVFPLAPSSKSTSGGTAALGCLVKDYFPEPVTVSWNSGALTSGVHTFPAVLQSSGLYSLSSVVTVPSSSLGTQTYICNVNHKPSNTKVDKKVEPKSCDKTHTCPPCPAPELLGGPSVFLFPPKPKDTLMISRTPEVTCVVVDVSHEDPEVKFNWYVDGVEVHNAKTKPREEQYNSTYRVVSVLTVLHQDWLNGKEYKCKVSNKALPAPIEKTISKAKGQPREPQVYTLPPSRDELTKNQVSLTCLVKGFYPSDIAVEWESNGQPENNYKTTPPVLDSDGSFFLYSKLTVDKSRWQQGNVFSCSVMHEALHNHYTSEVFVPQSRKVI
light: SSALTQPSALSVSLGQTARITCQGGSLGSSYAHWYQQKPGQAPVLVIYGDDSRPSGIPERFSGSSSGGTATLTISGAQAEDEDDYYCQSTDSSGNTVFGGGTRLTVLQPKAAPSVTLFPPSSEELQANKATLVCLISDFYPGAVTVAWKADSSPVKAGVETTTPSKQSNNKYAASSYLSLTPEQWKSHRSYSCQVTHEGSTVEKTVAPTECS
On to B6, for which the % binding (EMAX) vs WT MET ECD amounted to 92.1% in assay [5], 114% in assay [6], 41.4% in assay [7] and 40.2% in [8]. Also, the EC50 (read off the curve) in assay [9] is 0.1 nM; in assay [10], roughly 0.1 nM; in assay [11], roughly 0.06 nM; in [12] it was roughly 0.07 nM.

A word on the EC50: it is the concentration needed to bring the measured effect to its halfway point. One may read the EC50 (read off the curve) as the concentration at which the effect is half-maximal.
